In publication doi:10.1101/2020.01.06.896597 (bioRxiv, 2020):

How the values were obtained:
cryo-EM structure = molecular target: the molecule itself; test: cryo-EM structure
[1] = molecular target: the molecule itself; test: cryo-EM 2D class averages

B1: full-length (FL) human ACAT1 (enzyme, UniProt P35610 1-550, looked up)
chain: MVGEEKMSLRNRLSKSRENPEEDEDQRNPAKESLETPSNGRIDIKQLIAKKIKLTAEAEELKPFFMKEVGSHFDDFVTNLIEKSASLDNGGCALTTFSVLEGEKNNHRAKDLRAPPEQGKIFIARRSLLDELLEVDHIRTIYHMFIALLILFILSTLVVDYIDEGRLVLEFSLLSYAFGKFPTVVWTWWIMFLSTFSVPYFLFQHWATGYSKSSHPLIRSLFHGFLFMIFQIGVLGFGPTYVVLAYTLPPASRFIIIFEQIRFVMKAHSFVRENVPRVLNSAKEKSSTVPIPTVNQYLYFLFAPTLIYRDSYPRNPTVRWGYVAMKFAQVFGCFFYVYYIFERLCAPLFRNIKQEPFSARVLVLCVFNSILPGVLILFLTFFAFLHCWLNAFAEMLRFGDRMFYKDWWNSTSYSNYYRTWNVVVHDWLYYYAYKDFLWFFSKRFKSAAMLAVFAVSAVVHEYALAVCLSFFYPVLFVLFMFFGMAFNFIVNDSRKKPIWNVLMWTSLFLGNGVLLCFYSQEWYARQHCPLKNPTFLDYVRPRSWTCRYVF
stoichiometry N (cryo-EM structure): 4

B2: ACAT1-ΔNTD (domain or fragment, human, UniProt P35610 111-550, looked up)
chain: DLRAPPEQGKIFIARRSLLDELLEVDHIRTIYHMFIALLILFILSTLVVDYIDEGRLVLEFSLLSYAFGKFPTVVWTWWIMFLSTFSVPYFLFQHWATGYSKSSHPLIRSLFHGFLFMIFQIGVLGFGPTYVVLAYTLPPASRFIIIFEQIRFVMKAHSFVRENVPRVLNSAKEKSSTVPIPTVNQYLYFLFAPTLIYRDSYPRNPTVRWGYVAMKFAQVFGCFFYVYYIFERLCAPLFRNIKQEPFSARVLVLCVFNSILPGVLILFLTFFAFLHCWLNAFAEMLRFGDRMFYKDWWNSTSYSNYYRTWNVVVHDWLYYYAYKDFLWFFSKRFKSAAMLAVFAVSAVVHEYALAVCLSFFYPVLFVLFMFFGMAFNFIVNDSRKKPIWNVLMWTSLFLGNGVLLCFYSQEWYARQHCPLKNPTFLDYVRPRSWTCRYVF
stoichiometry N [1]: 2
